Measured values: publication PMC8266045, “MT1-MMP-dependent ECM processing regulates laminB1 stability and mediates replication fork restart” (PLoS ONE, 2021)

B1: laminB1 (natural protein, human (endogenous in MDA-MB-231), UniProt P20700 1-586, looked up)
chain: MATATPVPPRMGSRAGGPTTPLSPTRLSRLQEKEELRELNDRLAVYIDKVRSLETENSALQLQVTEREEVRGRELTGLKALYETELADARRALDDTARERAKLQIELGKCKAEHDQLLLNYAKKESDLNGAQIKLREYEAALNSKDAALATALGDKKSLEGDLEDLKDQIAQLEASLAAAKKQLADETLLKVDLENRCQSLTEDLEFRKSMYEEEINETRRKHETRLVEVDSGRQIEYEYKLAQALHEMREQHDAQVRLYKEELEQTYHAKLENARLSSEMNTSTVNSAREELMESRMRIESLSSQLSNLQKESRACLERIQELEDLLAKEKDNSRRMLTDKEREMAEIRDQMQQQLNDYEQLLDVKLALDMEISAYRKLLEGEEERLKLSPSPSSRVTVSRASSSRSVRTTRGKRKRVDVEESEASSSVSISHSASATGNVCIEEIDVDGKFIRLKNTSEQDQPMGGWEMIRKIGDTSVSYKYTSRYVLKAGQTVTIWAANAGVTASPPTDLIWKNQNSWGTGEDVKVILKNSQGEEVAQRSTVFKTTIPEEEEEEEEAAGVVVEEELFHQQGTPRASNRSCAIM
notes: Lamin B1, nuclear envelope intermediate filament protein, endogenous in human MDA-MB-231 breast cancer cells; The introduction says that laminB1 is tethered to the membrane via a farnesyl group; nothing is said of the modification state in the co-IP; also called LMNB1; source: endogenous, MDA-MB-231 lysate (RIPA buffer)
B2: Focal Adhesion Kinase (natural protein, human (endogenous in MDA-MB-231), UniProt Q05397 1-1052, looked up)
chain: MAAAYLDPNLNHTPNSSTKTHLGTGMERSPGAMERVLKVFHYFESNSEPTTWASIIRHGDATDVRGIIQKIVDSHKVKHVACYGFRLSHLRSEEVHWLHVDMGVSSVREKYELAHPPEEWKYELRIRYLPKGFLNQFTEDKPTLNFFYQQVKSDYMLEIADQVDQEIALKLGCLEIRRSYWEMRGNALEKKSNYEVLEKDVGLKRFFPKSLLDSVKAKTLRKLIQQTFRQFANLNREESILKFFEILSPVYRFDKECFKCALGSSWIISVELAIGPEEGISYLTDKGCNPTHLADFTQVQTIQYSNSEDKDRKGMLQLKIAGAPEPLTVTAPSLTIAENMADLIDGYCRLVNGTSQSFIIRPQKEGERALPSIPKLANSEKQGMRTHAVSVSETDDYAEIIDEEDTYTMPSTRDYEIQRERIELGRCIGEGQFGDVHQGIYMSPENPALAVAIKTCKNCTSDSVREKFLQEALTMRQFDHPHIVKLIGVITENPVWIIMELCTLGELRSFLQVRKYSLDLASLILYAYQLSTALAYLESKRFVHRDIAARNVLVSSNDCVKLGDFGLSRYMEDSTYYKASKGKLPIKWMAPESINFRRFTSASDVWMFGVCMWEILMHGVKPFQGVKNNDVIGRIENGERLPMPPNCPPTLYSLMTKCWAYDPSRRPRFTELKAQLSTILEEEKAQQEERMRMESRRQATVSWDSGGSDEAPPKPSRPGYPSPRSSEGFYPSPQHMVQTNHYQVSGYPGSHGITAMAGSIYPGQASLLDQTDSWNHRPQEIAMWQPNVEDSTVLDLRGIGQVLPTHLMEERLIRQQQEMEEDQRWLEKEERFLKPDVRLSRGSIDREDGSLQGPIGNQHIYQPVGKPDPAAPPKKPPRPGAPGHLGSLASLSSPADSYNEGVKLQPQEISPPPTANLDRSNDKVYENVTGLVKAVIEMSSKIQPAPPEEYVPMVKEVGLALRTLLATVDETIPLLPASTHREIEMAQKLLNSDLGELINKMKLAQQYVMTSLQQEYKKQMLTAAHALAVDAKNLLDVIDQARLKMLGQTRPH
notes: Focal adhesion kinase (FAK), endogenous in human MDA-MB-231 breast cancer cells; Endogenous protein; also called FAK; source: endogenous, MDA-MB-231 lysate (RIPA buffer)

Assays:
Focal Adhesion Kinase = biological target: B2; experiment: co-IP; MDA-MB-231 lysate in RIPA buffer (50mM Tris HCl pH 8, 150 mM NaCl, 1% NP-40, 0.5% sodium deoxycholate); immunoprecipitated overnight at 4°C with FAK antibody; immunoblot with anti FAK and anti laminB1; IgG as negative control; conditions: partners not purified
laminB1 = biological target: B1; experiment: co-IP; MDA-MB-231 lysate in RIPA buffer (50mM Tris HCl pH 8, 150 mM NaCl, 1% NP-40, 0.5% sodium deoxycholate); immunoprecipitated overnight at 4°C with laminB1 antibody; immunoblot with anti FAK and anti laminB1; IgG as negative control; conditions: partners not purified

enrichment versus input (Focal Adhesion Kinase) [fold versus input] | enrichment versus input (laminB1) [fold versus input] | Binder
5.5 ± 0.4 | – | B1
– | 6.4 ± 1.05 | B2
